Here are results for two molecules from patent EP2287285A2 (UAB RESEARCH FOUNDATION, dated 2011).

The target in experiment [1] is T1, DR4/hIgG1 (TRAIL-R1) fusion protein (human, UniProt O00220 24-239, limits assumed).
T1 construct: also called DR4-Ig
Description: ELISA on plates coated with 2 µg/ml DR4-Ig, HRP anti-Flag detection. In general terms: ELISA stands for enzyme-linked immunosorbent assay.

For experiment [2], the target named is T2, human DR4, full length, on the cell surface (Cos-7 cells transfected with full-length DR4 cDNA); human cell … (human, UniProt O00220 24-468).
T2 construct: whole, on cells; also called cell surface DR4
Description: flow cytometry of transfected Cos-7 cells (Fig. 1c). A general note: Flow cytometry measures light scatter and fluorescence of single cells or particles in a stream.

Experiment [3] deals with T3, human DR5, full length, on the cell surface (Cos-7 cells transfected with full-length human DR5 cDNA); human … (human, UniProt O14763 56-440).
T3 construct: whole, on cells; also called cell surface DR5; human DR5 antigen
In words: radioisotope labeled TRA-8 on a breast cancer cell line in vitro.

The target of experiment [4] is T4, CD95/hIgG1 (soluble form of human Fas) (human, UniProt P25445 26-173, limits assumed).
T4 construct: Provided by Amgen; also called Fas (CD95)
T4 sequence (looked up): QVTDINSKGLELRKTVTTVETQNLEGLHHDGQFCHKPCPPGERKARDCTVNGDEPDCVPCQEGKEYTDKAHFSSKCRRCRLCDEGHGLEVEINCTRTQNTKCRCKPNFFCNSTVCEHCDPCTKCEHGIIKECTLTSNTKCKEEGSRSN
In words: Western blot, 0.5 µg of each protein. Background: Immunoblotting shows a protein as a band on a membrane.

Experiment [5] concerns the target T5, TRAIL-R3 (DcR-1)/hIgG1 fusion protein (human, UniProt O14798 26-236, limits assumed).
T5 sequence (looked up): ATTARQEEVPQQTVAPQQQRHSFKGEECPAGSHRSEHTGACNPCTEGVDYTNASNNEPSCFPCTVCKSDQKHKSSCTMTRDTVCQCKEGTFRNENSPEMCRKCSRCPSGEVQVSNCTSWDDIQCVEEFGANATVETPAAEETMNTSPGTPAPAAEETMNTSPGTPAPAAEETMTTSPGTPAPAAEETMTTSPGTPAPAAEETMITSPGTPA
In words: Western blot, 0.5 µg of each protein.

Experiment [6] concerns the target T6, soluble TNFRI (soluble form of human TNFR1) (human, UniProt P19438 41-201, limits assumed).
T6 construct: Provided by Amgen; an Fc part is therefore uncertain and not written; also called TNF receptor I
T6 sequence (looked up): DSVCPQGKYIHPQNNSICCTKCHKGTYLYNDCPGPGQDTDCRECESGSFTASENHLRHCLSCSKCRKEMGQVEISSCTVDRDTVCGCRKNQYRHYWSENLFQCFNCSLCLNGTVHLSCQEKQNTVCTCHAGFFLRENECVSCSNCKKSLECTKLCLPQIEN
In words: Western blot, 0.5 µg of each protein.

The target in experiment [7] is T7, TRAIL-R4 (DcR-2)/hIgG1 fusion protein (human, UniProt Q9UBN6 56-211, limits assumed).
T7 sequence (looked up): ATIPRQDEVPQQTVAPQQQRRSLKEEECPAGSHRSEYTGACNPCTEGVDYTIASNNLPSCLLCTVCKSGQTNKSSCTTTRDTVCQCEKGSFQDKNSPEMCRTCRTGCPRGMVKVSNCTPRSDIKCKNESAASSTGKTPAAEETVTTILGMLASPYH
Description: Western blot, 0.5 µg of each protein.

In experiment [8] the target is T1, DR4/hIgG1 (TRAIL-R1) fusion protein. Description: ELISA on plates coated with 2 µg/ml DR4-Ig (Fig. 1b, middle panel).
Experiment [9] deals with T8, murine DR5/hIgG1 fusion protein (murine; human, UniProt Q9QZM4 53-180, limits assumed).
T8 construct: also called murine homologue of DR5
In words: ELISA, absorbance 450 nm/650 nm (Fig. 1a, column 8 of lower panel).

The target in experiment [10] is T9, human DR5/hIgG1 fusion protein (immunogen); residues 1-180 of the extracellular portion of DR5 fused to the … (human, UniProt O14763 56-180).
T9 construct: range 1-180; also called DR5-IgG; DR5-IgG1
Description: ELISA on coated DR5-Ig, one-site binding model, non-linear regression.

The term Kd denotes the concentration at which binding is half-saturated.

B1: soluble recombinant human TRAIL (Alexis): extracellular domain of human TRAIL (aa residues 95 to 281) fused at the N-terminus to a FLAG-tag and an 8 amino acid … (ligand, UniProt P50591 95-281, looked up)
chain: TSEETISTVQEKQQNISPLVRERGPQRVAAHITGTRGRSNTLSSPNSKNEKALGRKINSWESSRSGHSFLSNLHLRNGELVIHEKGFYYIYSQTYFRFQEEIKENTKNDKQMVQYIYKYTSYPDPILLMKSARNSCWSKDAEYGLYSIYQGGIFELKENDRIFVSVTNEHLIDMDHEASFFGAFLVG
notes: range 95-281; Bought reagent; also called TRAIL-FLAG; soluble TRAIL; not shown: FLAG tag; 8 amino acid linker peptide
On to B1, for which the binding result in [1] was “binds”.

B2: TRA-8 monoclonal anti-human DR5 antibody (mouse-mouse hybridoma TRA-8, ATCC PTA-1428) (antibody, mouse IgG1, kappa, V domains shown)
VH: EVMLVESGGGLVKPGGSLKLSCAASGFTFSSYVMSWVRQTPEKRLEWVATISSGGSYTYYPDSVKGRFTISRDNAKNTLYLQMSSLRSEDTAMYYCARRGDSMITTDYWGQGTTLTVSS
VL: DIVMTQSHKFMSTSVGDRVSITCKASQDVGTAVAWYQQKPGQSPKLLIYWASTRHTGVPDRFTGSGSGTDFTLTISNVQSEDLADYFCQQYSSYRTFGGGTKLEIKR
notes: also called anti-DR5 antibody (clone: TRA-8)
For B2, the binding result was “no binding” in experiment [2]; “no binding (tested: 1 µg/ml)” in experiment [4]; “no binding (tested: 1 µg/ml)” in experiment [5]; “no binding (tested: 1 µg/ml)” in experiment [6]; “no binding (tested: 1 µg/ml)” in experiment [7]; “no binding” in experiment [8]. Besides, in [9], the binding result is on record as “no binding”. For the same molecule, the dissociation constant (Kd) in [3] and in experiment [10] was 3 nM in each case.
